{"source": "patent US20240407995A1", "about": "“BIOMINERALIZATION MATERIAL FOR TREATING DENTIN HYPERSENSITIVITY AND PROMOTING EPITAXIAL GROWTH OF ENAMEL, AND USE THEREOF” (SHAANXI NORMAL UNIVERSITY, priority 2022, published 2024)", "assay": "Film-forming critical line of lysozyme concentration vs cysteine concentration", "assay_type": "physicochemical", "settings": "FIG. 2", "method": "In order to study a film-forming critical line between a film-forming protein and cysteine, the inventors prepared different concentrations of film-forming protein solutions and cysteine solutions, and curves were drawn as shown in FIG. 2. […] However, when the protein concentration was 0.2 mg/mL, higher concentration of cysteine was required for film formation.", "data": [{"substance": "lysozyme [Lyz]", "values": [{"measurement": "protein concentration at which a small amount of cysteine could form a film", "value": "greater than or equal to 0.2 mg/mL"}]}]}
